Here are results for 4 molecules from PMC9198273.

One test deals with untagged CXCR3-A (human) (UniProt P49682).
Test [1] has as its target CXCR3-B C-terminally fused with SmBiT (human) (UniProt P49682).
The target in test [2] is CXCR3-A C-terminally fused with SmBiT (human) (UniProt P49682).
Test [3] has as its target CXCR3-B -30, C-terminally fused with SmBiT (human) (UniProt P49682).
Test [4] concerns the target CXCR3-B C-terminally fused with SmBiT (human) (UniProt P49682). This is another data set of the same source.
Test [5] has as its target CXCR3-B -40, C-terminally fused with SmBiT (human) (UniProt P49682).
Test [6] has as its target CXCR3-A C-terminally fused with SmBiT (human) (UniProt P49682). This is another data set of the same source.

Numbering of substitutions follows the chain as printed.

With “CXCL10 (from UniProt P02778 22-98) (ligand)”, in the test with untagged CXCR3-A (human), the Table 1: Gi2 dissociation in CXCR3-A-expressing cells, EC50 of the chemokine (NanoBRET G protein activity sensor) is 0.9 nM; the Table 1: Go1 dissociation in CXCR3-A-expressing cells, EC50 of the chemokine (NanoBRET G protein activity sensor) turned out to be 1.9 nM; the Table 1: Gq dissociation in CXCR3-A-expressing cells, EC50 of the chemokine (NanoBRET G protein activity sensor) was determined as 2.3 nM; the Table 1: cAMP, EC50 of the chemokine for the reduction of intracellular cAMP in CXCR3-A-expressing cells (GloSensor) was 14.1 nM. Moreover, the Table 1: β-arrestin-2 recruitment to CXCR3-B, EC50 of the chemokine (NanoBiT-based assay) in test [1] amounted to 59.2 nM. In test [2], this molecule displayed a Table 1: miniGi recruitment to CXCR3-A, EC50 of the chemokine (NanoBiT-based assay) of 18.2 nM; a Table 1: miniGq recruitment to CXCR3-A, EC50 of the chemokine (NanoBiT-based assay) of 22.2 nM; a Table 1: β-arrestin-1 recruitment to CXCR3-A, EC50 of the chemokine (NanoBiT-based assay) of 17.8 nM; a Table 1: β-arrestin-2 recruitment to CXCR3-A, EC50 of the chemokine (NanoBiT-based assay) of 2.9 nM. In test [2], this molecule came in with a Table 2: β-arrestin-1 recruitment to CXCR3-A, EC50 of the chemokine (NanoBiT-based assay, HEK293T) of 10.7 nM.

B1: CXCL9 (ligand)
chain: TPVVRKGRCSCISTNQGTIHLQSLKDLKQFAPSPSCEKIEIIATLKNGVQTCLNPDSADVKELIKKWEKQVSQKKKQKNGKKHQKKKVLKVRKSQRSRQKKTT
In the test with untagged CXCR3-A (human), B1 gave a Table 1: Gi2 dissociation in CXCR3-A-expressing cells, EC50 of the chemokine (NanoBRET G protein activity sensor) of 19.9 nM; a Table 1: Go1 dissociation in CXCR3-A-expressing cells, EC50 of the chemokine (NanoBRET G protein activity sensor) of 77.8 nM; a Table 1: Gq dissociation in CXCR3-A-expressing cells, EC50 of the chemokine (NanoBRET G protein activity sensor) of 56 nM; a Table 1: cAMP, EC50 of the chemokine for the reduction of intracellular cAMP in CXCR3-A-expressing cells (GloSensor) of 21.9 nM. This molecule showed a Table 1: β-arrestin-2 recruitment to CXCR3-B, EC50 of the chemokine (NanoBiT-based assay) in test [1] of 100000 nM. The same molecule returned a Table 1: β-arrestin-2 recruitment to CXCR3-A, EC50 of the chemokine (NanoBiT-based assay) in test [2] of 16000 nM.

B2: CXCL11 (ligand)
chain: FPMFKRGRCLCIGPGVKAVKVADIEKASIMYPSNNCDKIEVIITLKENKGQRCLNPKSKQARLIIKKVERKNF
On to B2, for which, in the test with untagged CXCR3-A (human), the Table 1: Gi2 dissociation in CXCR3-A-expressing cells, EC50 of the chemokine (NanoBRET G protein activity sensor) worked out at 1.2 nM; the Table 1: Go1 dissociation in CXCR3-A-expressing cells, EC50 of the chemokine (NanoBRET G protein activity sensor) turned out to be 1.8 nM; the Table 1: Gq dissociation in CXCR3-A-expressing cells, EC50 of the chemokine (NanoBRET G protein activity sensor) amounted to 0.4 nM; the Table 1: cAMP, EC50 of the chemokine for the reduction of intracellular cAMP in CXCR3-A-expressing cells (GloSensor) came to 6.3 nM. Besides, in test [1], the Table 1: β-arrestin-1 recruitment to CXCR3-B, EC50 of the chemokine (NanoBiT-based assay) came out at 49.4 nM; the Table 1: β-arrestin-2 recruitment to CXCR3-B, EC50 of the chemokine (NanoBiT-based assay) is 12.4 nM; the Table 2: β-arrestin-1 recruitment to CXCR3-B, EC50 of the chemokine (NanoBiT-based assay, HEK293T) amounted to 51.6 nM. In test [2], this molecule registered a Table 1: miniGi recruitment to CXCR3-A, EC50 of the chemokine (NanoBiT-based assay) of 12.4 nM; a Table 1: miniGq recruitment to CXCR3-A, EC50 of the chemokine (NanoBiT-based assay) of 25.9 nM; a Table 1: β-arrestin-1 recruitment to CXCR3-A, EC50 of the chemokine (NanoBiT-based assay) of 15.8 nM; a Table 1: β-arrestin-2 recruitment to CXCR3-A, EC50 of the chemokine (NanoBiT-based assay) of 2.9 nM. The same molecule showed a Table 2: β-arrestin-1 recruitment to CXCR3-A, EC50 of the chemokine (NanoBiT-based assay, HEK293T) in test [2] of 9.6 nM. Also, in test [3], the Table 3: miniGi recruitment to CXCR3-B -30, EC50 of CXCL11 (NanoBiT-based assay, HEK293T) stood at 27.2 nM. The molecule further had a Table 3: β-arrestin-1 recruitment to CXCR3-B, EC50 of CXCL11 (NanoBiT-based assay) in test [4] of 23.9 nM. In test [5], the Table 3: miniGi recruitment to CXCR3-B -40, EC50 of CXCL11 (NanoBiT-based assay, HEK293T) was found to be 32.7 nM. In test [6], the Table 3: miniGi recruitment to CXCR3-A, EC50 of CXCL11 (NanoBiT-based assay, HEK293T) turned out to be 18.2 nM and the Table 3: β-arrestin-1 recruitment to CXCR3-A, EC50 of CXCL11 (NanoBiT-based assay) is 6.7 nM.

B3: CXCL11P2G (ligand)
chain: B2 chain with P2G
In test [1], B3 showed a Table 2: β-arrestin-1 recruitment to CXCR3-B, EC50 of the chemokine (NanoBiT-based assay, HEK293T) of 153 nM. Also, the Table 2: β-arrestin-1 recruitment to CXCR3-A, EC50 of the chemokine (NanoBiT-based assay, HEK293T) in test [2] came to 14.8 nM.
